What was measured:
[1] = target: T1, human coagulation factor XI (UniProt P03951 19-625); test: ELISA
[2] = target: T1, human coagulation factor XI; test: FXIIa induced FXI conversion assay
[3] = target: T1, human coagulation factor XI; test: ELISA; remark: listed apart in the source
[4] = target: T1, human coagulation factor XI; test: Conversion Assay
[5] = target: baboon FXI (Papio anubis (baboon)); test: ELISA
[6] = target: T1, human coagulation factor XI; test: ELISA; remark: listed apart in the source
[7] = target: T1, human coagulation factor XI; test: ELISA; remark: listed apart in the source
[8] = target: T1, human coagulation factor XI; test: ELISA; remark: listed apart in the source
[9] = target: T1, human coagulation factor XI; test: ELISA; remark: listed apart in the source

EC50 [1] [pM] | EC50 [4] [pM] | EC50 [5] [pM] | Binder | also measured
200 | 600 | – | humanized and germlined anti-FXI antibody TPP-3583 (antibody, V domains shown) VH: EVTLRESGPALVKPTQTLTLTCTFSGFSLSTSGMGVGWIRQPPGKALEWLAHIDWDDDKYYSPSLKSRLTISKDTSKNQVVLTMTNMDPVDTATYYCARIRSSVYAHYYGMDYWGQGTTVTVSS VL: DIVMTQSPDSLAVSLGERATISCKASQSVLYSGDNYLNWYQQKPGQPPKLLIYAASTLESGIPDRFSGSGSGTDFTLTISSLQAEDVAVYYCQQYNGDPWTFGGGTKVEIKR | IC50 [2]: 598 pM; EC50 [3]: 219 pM
– | – | 130 | TPP-3583 (antibody, V domains shown) VH: EVTLRESGPALVKPTQTLTLTCTFSGFSLSTSGMGVGWIRQPPGKALEWLAHIDWDDDKYYSPSLKSRLTISKDTSKNQVVLTMTNMDPVDTATYYCARIRSSVYAHYYGMDYWGQGTTVTVSS VL: DIVMTQSPDSLAVSLGERATISCKASQSVLYSGDNYLNWYQQKPGQPPKLLIYAASTLESGIPDRFSGSGSGTDFTLTISSLQAEDVAVYYCQQYNGDPWTFGGGTKVEIKR | –
160 | 600 | – | humanized and germlined anti-FXI antibody TPP-3238 (antibody, V domains shown) VH: EVTLRESGPALVKPTQTLTLTCTFSGFSLSTSGMGVSWIRQPPGKALEWLAHIDWDDDKYYSTSLKSRLTISKDTSKNQVVLTMTNMDPVDTATYYCARIRSSVYYYYYGMDVWGQGTTVTVSS VL: not shown | EC50 [6]: 165 pM
190 | 400 | – | humanized and germlined anti-FXI antibody TPP-3577 (antibody, V domains shown) VH: EVTLRESGPALVKPTQTLTLTCTFSGFSLSTSGMCVGWIRQPPGKALEWLAHIDWDDDKYYSTSLKSRLTISKDTSKNQVVLTMTNMDPVDTATYYCARIRSSVYAHYYGMDVWGQGTTVTVSS VL: DIVMTQSPDSLAVSLGERATISCKSSQSVLYSGDNYLNWYQQKPGQPPKLLIYAASTLESGIPDRFSGSGSGTDFTLTISSLQAEDVAVYYCQQYNGDPWTFGGGTKVEIKR | EC50 [7]: 119 pM
170 | 400 | – | humanized and germlined anti-FXI antibody TPP-3290 (antibody, V domains shown) VH: EVTLRESGPALVKPTQTLTLTCTFSGFSLSTSGMGVSWIRQPPGKALEWLAHIDWDDDKYYSTSLKSRLTISKDTSKNQVVLTMTNMDPVDTATYYCARIRSSVYAHYYGMDYWGQGTTVTVSS VL: DIVMTQSPDSLAVSLGERATISCKASQSVLYSGDNYLNWYQQKPGQPPKLLIYAASTLESGIPDRFSGSGSGTDFTLTISSLQAEDVAVYYCQQYNGTPWTFGGGTKVEIKR | EC50 [8]: 168 pM
– | – | 160 | TPP-3577 (antibody, V domains shown) VH: EVTLRESGPALVKPTQTLTLTCTFSGFSLSTSGMCVGWIRQPPGKALEWLAHIDWDDDKYYSTSLKSRLTISKDTSKNQVVLTMTNMDPVDTATYYCARIRSSVYAHYYGMDVWGQGTTVTVSS VL: DIVMTQSPDSLAVSLGERATISCKSSQSVLYSGDNYLNWYQQKPGQPPKLLIYAASTLESGIPDRFSGSGSGTDFTLTISSLQAEDVAVYYCQQYNGDPWTFGGGTKVEIKR | –
– | – | 280 | TPP-3238 (antibody, V domains shown) VH: EVTLRESGPALVKPTQTLTLTCTFSGFSLSTSGMGVSWIRQPPGKALEWLAHIDWDDDKYYSTSLKSRLTISKDTSKNQVVLTMTNMDPVDTATYYCARIRSSVYYYYYGMDVWGQGTTVTVSS VL: not shown | –
– | – | 140 | TPP-3290 (antibody, V domains shown) VH: EVTLRESGPALVKPTQTLTLTCTFSGFSLSTSGMGVSWIRQPPGKALEWLAHIDWDDDKYYSTSLKSRLTISKDTSKNQVVLTMTNMDPVDTATYYCARIRSSVYAHYYGMDYWGQGTTVTVSS VL: DIVMTQSPDSLAVSLGERATISCKASQSVLYSGDNYLNWYQQKPGQPPKLLIYAASTLESGIPDRFSGSGSGTDFTLTISSLQAEDVAVYYCQQYNGTPWTFGGGTKVEIKR | –
– | – | 160 | 1A6 (antibody, V domains shown) VH: QVTLKESGPGILKPSQTLSLTCSFSGFSLSTSGMGVGWIRQPSGKGLEWLAHIWWDDDKYYNPSLKSQLTISKDTSRNQVFLKITSVDAADTATYYCARKRSSVVAHYYAMDYWGQGTSVTVSS VL: DIVLTQSPASLAVSLGQRATISCKASQSVDYDGDSYLNWYQQKPGQPPKLLIYAASNLESGIPARFSGSGSGTDFTLNIHPVEEEDAATYYCQQSNGDPWTFGGGTKLEIK | –
150 | 500 | – | murine anti-FXI antibody 1A6 (antibody, V domains shown) VH: QVTLKESGPGILKPSQTLSLTCSFSGFSLSTSGMGVGWIRQPSGKGLEWLAHIWWDDDKYYNPSLKSQLTISKDTSRNQVFLKITSVDAADTATYYCARKRSSVVAHYYAMDYWGQGTSVTVSS VL: DIVLTQSPASLAVSLGQRATISCKASQSVDYDGDSYLNWYQQKPGQPPKLLIYAASNLESGIPARFSGSGSGTDFTLNIHPVEEEDAATYYCQQSNGDPWTFGGGTKLEIK | EC50 [9]: 154 pM

Reference: patent publication US20190225705A1 (published 2019)
